Columns and labels:
[1] = biological target: BabSPARTA complex (BabAgo:BabTIR-APAZ heterodimer) (Bacillales bacterium); experiment: cryo-EM structure
[2] = biological target: T1, BabAgo (short pAgo subunit of BabSPARTA);BabTIR-APAZ (subunit of BabSPARTA) (Bacillales bacterium;Bacillales …, UniProt PDB:8QLP_2;PDB:8QLP_1 1-507;1-452, |); experiment: cryo-EM structure
T1 sequence 1: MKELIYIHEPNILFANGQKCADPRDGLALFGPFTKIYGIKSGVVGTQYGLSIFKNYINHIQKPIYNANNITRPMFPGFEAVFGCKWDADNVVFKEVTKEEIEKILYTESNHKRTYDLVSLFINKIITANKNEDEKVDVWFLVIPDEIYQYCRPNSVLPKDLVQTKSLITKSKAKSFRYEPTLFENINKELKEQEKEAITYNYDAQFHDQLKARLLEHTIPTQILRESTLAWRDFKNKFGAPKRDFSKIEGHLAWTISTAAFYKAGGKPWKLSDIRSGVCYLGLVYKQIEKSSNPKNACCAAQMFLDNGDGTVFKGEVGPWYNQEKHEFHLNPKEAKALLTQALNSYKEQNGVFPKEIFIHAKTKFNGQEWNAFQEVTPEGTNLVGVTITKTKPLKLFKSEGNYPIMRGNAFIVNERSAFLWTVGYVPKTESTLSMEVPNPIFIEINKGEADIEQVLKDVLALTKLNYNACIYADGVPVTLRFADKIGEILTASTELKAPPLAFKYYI
T1 sequence 2: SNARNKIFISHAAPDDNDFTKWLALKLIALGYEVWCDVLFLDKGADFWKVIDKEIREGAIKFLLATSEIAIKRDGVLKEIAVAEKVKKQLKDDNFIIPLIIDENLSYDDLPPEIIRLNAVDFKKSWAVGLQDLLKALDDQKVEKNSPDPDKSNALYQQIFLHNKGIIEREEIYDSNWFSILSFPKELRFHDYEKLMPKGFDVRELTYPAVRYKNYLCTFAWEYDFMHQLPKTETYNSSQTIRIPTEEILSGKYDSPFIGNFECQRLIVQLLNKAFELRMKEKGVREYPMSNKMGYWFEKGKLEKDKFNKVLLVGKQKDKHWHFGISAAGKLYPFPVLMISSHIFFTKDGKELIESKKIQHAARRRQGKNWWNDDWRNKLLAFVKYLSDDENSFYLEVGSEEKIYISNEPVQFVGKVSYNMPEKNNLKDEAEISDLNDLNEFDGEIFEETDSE

Molecule: BabSPARTA complex (BabAgo:BabTIR-APAZ heterodimer)
- stoichiometry N [1]: 4

B1: guide RNA oBK084 / target DNA oBK382 (DNA:RNA)
RNA: UGACGGCUCUAAUCUAUUAGU
DNA: CAACTAATAGATTAGAGCCGTCAAT
modifications: 5'-phosphate on guide RNA
- binding result [2]: binds

— publication PMC10899771
